Test results: publication PMC6226434

T1: full-length human ETA receptor construct with an internal FLAG epitope tag (human) (UniProt P25101)
T1 sequence: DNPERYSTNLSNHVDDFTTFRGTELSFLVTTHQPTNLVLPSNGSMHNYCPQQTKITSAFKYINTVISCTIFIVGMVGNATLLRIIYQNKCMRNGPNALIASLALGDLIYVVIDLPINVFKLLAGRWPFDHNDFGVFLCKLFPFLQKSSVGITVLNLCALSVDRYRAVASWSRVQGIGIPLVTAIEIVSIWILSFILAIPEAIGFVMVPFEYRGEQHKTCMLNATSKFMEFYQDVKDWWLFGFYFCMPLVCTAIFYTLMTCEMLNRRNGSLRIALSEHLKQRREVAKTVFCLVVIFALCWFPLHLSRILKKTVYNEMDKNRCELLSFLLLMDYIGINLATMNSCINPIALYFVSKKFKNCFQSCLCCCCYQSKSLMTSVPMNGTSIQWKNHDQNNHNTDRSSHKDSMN

T2: ETA-SmBiT construct (human ETA receptor with SmBiT at the C-terminus) (human) (UniProt P25101)
T2 sequence: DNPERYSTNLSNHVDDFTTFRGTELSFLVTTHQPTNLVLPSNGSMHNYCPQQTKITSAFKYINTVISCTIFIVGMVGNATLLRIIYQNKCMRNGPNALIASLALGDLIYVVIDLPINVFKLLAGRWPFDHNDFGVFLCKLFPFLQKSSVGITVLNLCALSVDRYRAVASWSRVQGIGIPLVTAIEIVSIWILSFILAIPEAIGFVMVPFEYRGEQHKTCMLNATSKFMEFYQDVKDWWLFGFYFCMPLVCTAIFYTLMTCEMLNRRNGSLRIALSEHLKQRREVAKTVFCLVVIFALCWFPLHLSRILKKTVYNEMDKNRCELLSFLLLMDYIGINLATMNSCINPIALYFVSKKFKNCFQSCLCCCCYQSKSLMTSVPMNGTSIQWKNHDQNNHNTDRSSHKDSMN


Legend:
[1] = target: human ETB receptor, wild type, codon-optimized construct with an internal FLAG epitope tag (human) (UniProt P24530)
[2] = target: thermostabilized human ETB receptor (ETB-Y5), construct with an internal FLAG epitope tag (human) (UniProt P24530)
[3] = target: human ETB receptor L252H I254T double mutant (human) (UniProt P24530)
[4] = target: human ETB receptor, wild type, codon-optimized construct with an internal FLAG epitope tag (human) (UniProt P24530); remark: listed apart in the source
[5] = target: ETB-Y5 with SmBiT at the C-terminus (thermostabilized human ETB receptor) (human) (UniProt P24530)
[6] = target: ETB-SmBiT construct (human ETB receptor with SmBiT at the C-terminus) (human) (UniProt P24530)
[7] = target: T1, full-length human ETA receptor construct with an internal FLAG epitope tag (human)
[8] = target: T2, ETA-SmBiT construct (human ETA receptor with SmBiT at the C-terminus) (human)

| AP-TGFα release (TGFα shedding assay), EC50 [1] | AP-TGFα release (TGFα shedding assay), Emax relative to ET-1 [1] | AP-TGFα release (TGFα shedding assay), EC50 [2] | AP-TGFα release (TGFα shedding assay), Emax relative to ET-1 [2] | AP-TGFα release (TGFα shedding assay), EC50 [3] | AP-TGFα release (TGFα shedding assay), EC50; experiment with the double mutant [4] | β-arrestin recruitment (NanoBiT, receptor-SmBiT with m12), EC50 [5] | β-arrestin recruitment (NanoBiT, receptor-SmBiT with m12), Emax relative to ET-1 [5] | β-arrestin recruitment (NanoBiT, receptor-SmBiT with m12), EC50 [6] | β-arrestin recruitment (NanoBiT, receptor-SmBiT with m12), Emax relative to ET-1 [6] | AP-TGFα release (TGFα shedding assay), EC50 [7] | AP-TGFα release (TGFα shedding assay), Emax relative to ET-1 [7] | β-arrestin recruitment (NanoBiT, receptor-SmBiT with m12), EC50 [8] | β-arrestin recruitment (NanoBiT, receptor-SmBiT with m12), Emax relative to ET-1 [8] | Molecule |
| --- | --- | --- | --- | --- | --- | --- | --- | --- | --- | --- | --- | --- | --- | --- |
| 0.11 nM | 87.6% | 0.92 nM | 83.6% | 0.32 nM | 0.14 nM | 15.1 nM | 85.4% | 3.1 nM | 87.3% |  |  |  |  | IRL1620 (N-Suc-[E9, A11, 15] ET-1(8-21)) (peptide) |
| 0.13 nM | 100% | 0.077 nM | 101% |  |  | 3.5 nM | 105% | 3.3 nM | 105% | 0.65 nM | 101% | 10.8 nM | 81.1% | CTCFTYKDKECVYYCHLDIIW [endothelin-3] |
